Legend:
HeLa Kyoto [1] = assay: solubility in G1/S (NP-40 vs SDS abundance) (log2 ratio); higher = more soluble; conditions: cell cycle stage: G1/S
HeLa Kyoto [2] = assay: thermal stability score vs G1/S (z-score of summed log2 fold changes over temperatures); higher = more thermally stable than in G1/S
HeLa Kyoto [3] = assay: melting temperature (median over replicates), in situ; higher = more thermally stable
HeLa Kyoto [4] = assay: solubility change mitosis vs G1/S (difference of NP-40 vs SDS log2 ratios) (log2 ratio difference); higher = more soluble in mitosis
[5] = cell cycle stage: early G1 (4.5 h after nocodazole release)
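Wherever melting temperature (median over replicates), in situ is given: HeLa Kyoto cells synchronized by double thymidine or nocodazole block, proteins quantified by TMT10plex mass spectrometry, three independent biological replicates.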
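Wherever solubility change mitosis vs G1/S (difference of NP-40 vs SDS log2 ratios) is given: synchronized HeLa Kyoto cells (double thymidine block for G1/S, nocodazole release for mitosis), protein amounts in NP-40 versus SDS lysates quantified by mass spectrometry, three biological replicates.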
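Wherever solubility in G1/S (NP-40 vs SDS abundance) is given: HeLa Kyoto cells arrested at G1/S by double thymidine block, proteins quantified by TMT10plex mass spectrometry in mild NP-40 versus SDS extracts, three biological replicates.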
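Wherever thermal stability score vs G1/S (z-score of summed log2 fold changes over temperatures) is given: synchronized HeLa Kyoto cells, proteins quantified by TMT10plex mass spectrometry, three biological replicates, mitosis taken 0.5 h after nocodazole release, G1/S directly after double thymidine block.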

| Substance | solubility in G1/S (log2) (HeLa Kyoto [1]) | thermal stability score (HeLa Kyoto [2]; [5]) | thermal stability score (HeLa Kyoto [2]; cell cycle stage: mitosis) | melting temperature (HeLa Kyoto [3]; cell cycle stage: G1/S) | melting temperature (HeLa Kyoto [3]; cell cycle stage: mitosis) | solubility change mitosis (log2) (HeLa Kyoto [4]) |
| --- | --- | --- | --- | --- | --- | --- |
| MSVRVARVAWVRGLGASYRRGASSFPVPPPGAQGVAELLRDATGAEEEAPWAATERRMPGQCSVLLFPGQGSQVVGMGRGLLNYPRVRELYAAARRVLGYDLLELSLHGPQETLDRTVHCQPAIFVASLAAVEKLHHLQPSVIENCVAAAGFSVGEFAALVFAGAMEFAEGLYAVKIRAEAMQEASEAVPSGMLSVLGQPQSKFNFACLEAREHCKSLGIENPVCEVSNYLFPDCRVISGHQEALRFLQKNSSKFHFRRTRMLPVSGAFHTRLMEPAVEPLTQALKAVDIKKPLVSVYSNVHAHRYRHPGHIHKLLAQQLVSPVKWEQTMHAIYERKKGRGFPQTFEVGPGRQLGAILKSCNMQAWKSYSAVDVLQTLEHVDLDPQEPPR [MT] | -0.124 | -1.31 | -2.45 | 59 °C | 56.6 °C | -0.162 |
| MVGSLNCIVAVSQNMGIGKNGDLPWPPLRNEFRYFQRMTTTSSVEGKQNLVIMGKKTWFSIPEKNRPLKGRINLVLSRELKEPPQGAHFLSRSLDDALKLTEQPELANKVDMVWIVGGSSVYKEAMNHPGHLKLFVTRIMQDFESDTFFPEIDLEKYKLLPEYPGVLSDVQEEKGIKYKFEVYEKND [DHFR] | 0.294 | 1.37 | 2.73 | 47.9 °C | 49.1 °C | -0.139 |
| MSKSFQQSSLSRDSQGHGRDLSAAGIGLLAAATQSLSMPASLGRMNQGTARLASLMNLGMSSSLNQQGAHSALSSASTSSHNLQSIFNIGSRGPLPLSSQHRGDADQASNILASFGLSARDLDELSRYPEDKITPENLPQILLQLKRRRTEEGPTLSYGRDGRSATREPPYRVPRDDWEEKRHFRRDSFDDRGPSLNPVLDYDHGSRSQESGYYDRMDYEDDRLRDGERCRDDSFFGETSHNYHKFDSEYERMGRGPGPLQERSLFEKKRGAPPSSNIEDFHGLLPKGYPHLCSICDLPVHSNKEWSQHINGASHSRRCQLLLEIYPEWNPDNDTGHTMGDPFMLQQSTNPAPGILGPPPPSFHLGGPAVGPRGNLGAGNGNLQGPRHMQKGRVETSRVVHIMDFQRGKNLRYQLLQLVEPFGVISNHLILNKINEAFIEMATTEDAQAAVDYYTTTPALVFGKPVRVHLSQKYKRIKKPEGKPDQKFDQKQELGRVIHLSNLPHSGYSDSAVLKLAEPYGKIKNYILMRMKSQAFIEMETREDAMAMVDHCLKKALWFQGRCVKVDLSEKYKKLVLRIPNRGIDLLKKDKSRKRSYSPDGKESPSDKKSKTDGSQKTESSTEGKEQEEKSGEDGEKDTKDDQTEQEPNMLLESEDELLVDEEEAAALLESGSSVGDETDLANLGDVASDGKKEPSDKAVKKDGSASAAAKKKLKKVDKIEELDQENEAALENGIKNEENTEPGAESSENADDPNKDTSENADGQSDENKDDYTIPDEYRIGPYQPNVPVGIDYVIPKTGFYCKLCSLFYTNEEVAKNTHCSSLPHYQKLKKFLNKLAEERRQKKET [MATR3] | -0.173 | 9.67 | 19.4 | 45.7 °C | 48.2 °C | 0.223 |
| MAQFDTEYQRLEASYSDSPPGEEDLLVHVAEGSKSPWHHIENLDLFFSRVYNLHQKNGFTCMLIGEIFELMQFLFVVAFTTFLVSCVDYDILFANKMVNHSLHPTEPVKVTLPDAFLPAQVCSARIQENGSLITILVIAGVFWIHRLIKFIYNICCYWEIHSFYLHALRIPMSALPYCTWQEVQARIVQTQKEHQICIHKRELTELDIYHRILRFQNYMVALVNKSLLPLRFRLPGLGEAVFFTRGLKYNFELILFWGPGSLFLNEWSLKAEYKRGGQRLELAQRLSNRILWIGIANFLLCPLILIWQILYAFFSYAEVLKREPGALGARCWSLYGRCYLRHFNELEHELQSRLNRGYKPASKYMNCFLSPLLTLLAKNGAFFAGSILAVLIALTIYDEDVLAVEHVLTTVTLLGVTVTVCRSFIPDQHMVFCPEQLLRVILAHIHYMPDHWQGNAHRSQTRDEFAQLFQYKAVFILEELLSPIVTPLILIFCLRPRALEIIDFFRNFTVEVVGVGDTCSFAQMDVRQHGHPQWLSAGQTEASVYQQAEDGKTELSLMHFAITNPGWQPPRESTAFLGFLKEQVQRDGAAASLAQGGLLPENALFTSIQSLQSESEPLSLIANVVAGSSCRGPPLPRDLQGSRHRAEVASALRSFSPLQPGQAPTGRAHSTMTGSGVDARTASSGSSVWEGQLQSLVLSEYASTEMSLHALYMHQLHKQQAQAEPERHVWHRRESDESGESAPDEGGEGARAPQSIPRSASYPCAAPRPGAPETTALHGGFQRRYGGITDPGTVPRVPSHFSRLPLGGWAEDGQSASRHPEPVPEEGSEDELPPQVHKV [ATG9A] | 0.0202 | -1.02 | -0.681 | 52 °C | 51.8 °C | -0.221 |
| MSDSKCDSQFYSVQVADSTFTVLKRYQQLKPIGSGAQGIVCAAFDTVLGINVAVKKLSRPFQNQTHAKRAYRELVLLKCVNHKNIISLLNVFTPQKTLEEFQDVYLVMELMDANLCQVIHMELDHERMSYLLYQMLCGIKHLHSAGIIHRDLKPSNIVVKSDCTLKILDFGLARTACTNFMMTPYVVTRYYRAPEVILGMGYKENVDIWSVGCIMGELVKGCVIFQGTDHIDQWNKVIEQLGTPSAEFMKKLQPTVRNYVENRPKYPGIKFEELFPDWIFPSESERDKIKTSQARDLLSKMLVIDPDKRISVDEALRHPYITVWYDPAEAEAPPPQIYDAQLEEREHAIEEWKELIYKEVMDWEERSKNGVVKDQPSDAAVSSNATPSQSSSINDISSMSTEQTLASDTDSSLDASTGPLEGCR [MAPK9] | -0.0645 | -0.633 | -0.772 | 50.9 °C |  | -0.147 |
| MPLPVALQTRLAKRGILKHLEPEPEEEIIAEDYDDDPVDYEATRLEGLPPSWYKVFDPSCGLPYYWNADTDLVSWLSPHDPNSVVTKSAKKLRSSNADAEEKLDRSHDKSDRGHDKSDRSHEKLDRGHDKSDRGHDKSDRDRERGYDKVDRERERDRERDRDRGYDKADREEGKERRHHRREELAPYPKSKKAVSRKDEELDPMDPSSYSDAPRGTWSTGLPKRNEAKTGADTTAAGPLFQQRPYPSPGAVLRANAEASRTKQQD [PQBP1] | 0.0148 | -3.93 | -4.26 | 58.2 °C | 54.6 °C | 0.599 |
| MATSLGSNTYNRQNWEDADFPILCQTCLGENPYIRMTKEKYGKECKICARPFTVFRWCPGVRMRFKKTEVCQTCSKLKNVCQTCLLDLEYGLPIQVRDAGLSFKDDMPKSDVNKEYYTQNMEREISNSDGTRPVGMLGKATSTSDMLLKLARTTPYYKRNRPHICSFWVKGECKRGEECPYRHEKPTDPDDPLADQNIKDRYYGINDPVADKLLKRASTMPRLDPPEDKTITTLYVGGLGDTITETDLRNHFYQFGEIRTITVVQRQQCAFIQFATRQAAEVAAEKSFNKLIVNGRRLNVKWGRSQAARGKEKEKDGTTDSGIKLEPVPGLPGALPPPPAAEEEASANYFNLPPSGPPAVVNIALPPPPGIAPPPPPGFGPHMFHPMGPPPPFMRAPGPIHYPSQDPQRMGAHAGKHSSP [RBM22] | -0.116 | -0.922 | -0.478 | 48.6 °C | 49.8 °C | 0.274 |
| ASCC1 | -0.115 | 1.88 | 1.1 | 50.3 °C | 50.7 °C | 0.0348 |
| MLFLALGSPWAVELPLCGRRTALCAAAALRGPRASVSRASSSSGPSGPVAGWSTGPSGAARLLRRPGRAQIPVYWEGYVRFLNTPSDKSEDGRLIYTGNMARAVFGVKCFSYSTSLIGLTFLPYIFTQNNAISESVPLPIQIIFYGIMGSFTVITPVLLHFITKGYVIRLYHEATTDTYKAITYNAMLAETSTVFHQNDVKIPDAKHVFTTFYAKTKSLLVNPVLFPNREDYIHLMGYDKEEFILYMEETSEEKRHKDDK [TMEM70] | -0.0239 | 0.217 | -1.65 | 54.1 °C | 53.4 °C | -0.344 |
| MTERFDCHHCNESLFGKKYILREESPYCVVCFETLFANTCEECGKPIGCDCKDLSYKDRHWHEACFHCSQCRNSLVDKPFAAKEDQLLCTDCYSNEYSSKCQECKKTIMPGTRKMEYKGSSWHETCFICHRCQQPIGTKSFIPKDNQNFCVPCYEKQHAMQCVQCKKPITTGGVTYREQPWHKECFVCTACRKQLSGQRFTARDDFAYCLNCFCDLYAKKCAGCTNPISGLGGTKYISFEERQWHNDCFNCKKCSLSLVGRGFLTERDDILCPDCGKDI [FHL2] | -0.304 | -1.09 | -1.97 | 52 °C | 51.9 °C | -0.0906 |
| MAVPGDAARVRDKPVHSGVSQAPTAGRDCHHRADPASPRDSGCRGCWGDLVLQPLRSSRKLSSALCAGSLSFLLALLVRLVRGEVGCDLEQCKEAAAAEEEEAAPGAEGGVFPGPRGGAPGGGARLSPWLQPSALLFSLLCAFFWMGLYLLRAGVRLPLAVALLAACCGGEALVQIGLGVGEDHLLSLPAAGVVLSCLAAATWLVLRLRLGVLMIALTSAVRTVSLISLERFKVAWRPYLAYLAGVLGILLARYVEQILPQSAEAAPREHLGSQLIAGTKEDIPVFKRRRRSSSVVSAEMSGCSSKSHRRTSLPCIPREQLMGHSEWDHKRGPRGSQSSGTSITVDIAVMGEAHGLITDLLADPSLPPNVCTSLRAVSNLLSTQLTFQAIHKPRVNPVTSLSENYTCSDSEESSEKDKLAIPKRLRRSLPPGLLRRVSSTWTTTTSATGLPTLEPAPVRRDRSTSIKLQEAPSSSPDSWNNPVMMTLTKSRSFTSSYAISAANHVKAKKQSRPGALAKISPLSSPCSSPLQGTPASSLVSKISAVQFPESADTTAKQSLGSHRALTYTQSAPDLSPQILTPPVICSSCGRPYSQGNPADEPLERSGVATRTPSRTDDTAQVTSDYETNNNSDSSDIVQNEDETECLREPLRKASACSTYAPETMMFLDKPILAPEPLVMDNLDSIMEQLNTWNFPIFDLVENIGRKCGRILSQVSYRLFEDMGLFEAFKIPIREFMNYFHALEIGYRDIPYHNRIHATDVLHAVWYLTTQPIPGLSTVINDHGSTSDSDSDSGFTHGHMGYVFSKTYNVTDDKYGCLSGNIPALELMALYVAAAMHDYDHPGRTNAFLVATSAPQAVLYNDRSVLENHHAAAAWNLFMSRPEYNFLINLDHVEFKHFRFLVIEAILATDLKKHFDFVAKFNGKVNDDVGIDWTNENDRLLVCQMCIKLADINGPAKCKELHLQWTDGIVNEFYEQGDEEASLGLPISPFMDRSAPQLANLQESFISHIVGPLCNSYDSAGLMPGKWVEDSDESGDTDDPEEEEEEAPAPNEEETCENNESPKKKTFKRRKIYCQITQHLLQNHKMWKKVIEEEQRLAGIENQSLDQTPQSHSSEQIQAIKEEEEEKGKPRGEEIPTQKPDQ [PDE3A] | 0.0669 | -2.5 | -4.37 | 51.8 °C | 49.6 °C | -0.179 |
| SMARCA2 | -0.129 | 2.43 | 4.33 | 47.8 °C | 49.7 °C | -0.051 |
| MGETMSKRLKLHLGGEAEMEERAFVNPFPDYEAAAGALLASGAAEETGCVRPPATTDEPGLPFHQDGKIIHNFIRRIQTKIKDLLQQMEEGLKTADPHDCSAYTGWTGIALLYLQLYRVTCDQTYLLRSLDYVKRTLRNLNGRRVTFLCGDAGPLAVGAVIYHKLRSDCESQECVTKLLQLQRSVVCQESDLPDELLYGRAGYLYALLYLNTEIGPGTVCESAIKEVVNAIIESGKTLSREERKTERCPLLYQWHRKQYVGAAHGMAGIYYMLMQPAAKVDQETLTEMVKPSIDYVRHKKFRSGNYPSSLSNETDRLVHWCHGAPGVIHMLMQAYKVFKEEKYLKEAMECSDVIWQRGLLRKGYGICHGTAGNGYSFLSLYRLTQDKKYLYRACKFAEWCLDYGAHGCRIPDRPYSLFEGMAGAIHFLSDVLGPETSRFPAFELDSSKRD [LANCL2] | -0.0171 | -0.346 | -0.592 | 57.7 °C | 55.4 °C | -0.119 |
